Measured values as given in PMC10681739, “High-throughput data and modeling reveal insights into the mechanisms of cooperative DNA-binding by transcription factor proteins”.

B1: Table S2 B row 3240 (dsDNA)
DNA 1: CTGTCCGCGACATCCGGGACCTGGGGGACCGCCGAT
DNA 2: ATCGGCGGTCCCCCAGGTCCCGGATGTCGCGGACAG
B2: Table S2 B row 16 (dsDNA)
DNA 1: CCACTGCTTCCGCCTTCTCTGCTGGCTGAGGGGAGC
DNA 2: GCTCCCCTCAGCCAGCAGAGAAGGCGGAAGCAGTGG
B3: Table S2 B row 526 (dsDNA)
DNA 1: TTACTTCCTGAGGGTGCACAGGCTGGGGTCGTCTAT
DNA 2: ATAGACGACCCCAGCCTGTGCACCCTCAGGAAGTAA
B4: Table S2 B row 3820 (dsDNA)
DNA 1: GGCGGCTTCCGGGATCTGCCTGGCGCTTGCTTTGTC
DNA 2: GACAAAGCAAGCGCCAGGCAGATCCCGGAAGCCGCC
B5: Table S2 B row 2841 (dsDNA)
DNA 1: CCTGTTTCCTGCCATCTGCCCTTCCTTTGGGGTCAA
DNA 2: TTGACCCCAAAGGAAGGGCAGATGGCAGGAAACAGG
B6: Table S2 B row 1200 (dsDNA)
DNA 1: GGTTCATTTCCTTTTCCTCCTTGGGGTATAAAAGAG
DNA 2: CTCTTTTATACCCCAAGGAGGAAAAGGAAATGAACC
B7: Table S2 B row 785 (dsDNA)
DNA 1: ATAGTCTCTTCCTGTGTTGCAAATCACAGGTCCACC
DNA 2: GGTGGACCTGTGATTTGCAACACAGGAAGAGACTAT
B8: Table S2 B row 717 (dsDNA)
DNA 1: AATCCCGGAAACGCGGATTCAGCGGAGCGCGGCGAC
DNA 2: GTCGCCGCGCTCCGCTGAATCCGCGTTTCCGGGATT
B9: Table S2 B row 1623 (dsDNA)
DNA 1: ACATTTCCGTTCAGCTCAGTGTTCACGGTGCGAGAC
DNA 2: GTCTCGCACCGTGAACACTGAGCTGAACGGAAATGT
B10: Table S2 B row 3959 (dsDNA)
DNA 1: AAGGGCAAAGTCACAGCCACTTCCGCCCAGCGCTTC
DNA 2: GAAGCGCTGGGCGGAAGTGGCTGTGACTTTGCCCTT
B11: Table S2 B row 771 (dsDNA)
DNA 1: AACAGGAAGTGGTCTTAGAGATCATGGGGTTCAGAG
DNA 2: CTCTGAACCCCATGATCTCTAAGACCACTTCCTGTT
B12: Table S2 B row 2465 (dsDNA)
DNA 1: CTACGACTTCCGTGATGCCTTACGGTTGCTGTAGCC
DNA 2: GGCTACAGCAACCGTAAGGCATCACGGAAGTCGTAG
B13: Table S2 B row 2565 (dsDNA)
DNA 1: AGCCACATCCTGGACAAAAGCTGTTGTCTAGTAACC
DNA 2: GGTTACTAGACAACAGCTTTTGTCCAGGATGTGGCT
B14: Table S2 B row 559 (dsDNA)
DNA 1: GCAGCATTTCCTGACTTCTTCGCCCCTGTCGTTGCA
DNA 2: TGCAACGACAGGGGCGAAGAAGTCAGGAAATGCTGC
B15: Table S2 B row 1656 (dsDNA)
DNA 1: CTCTGAGCAGGAAGTGACAAATCCACGCAGGGCAGG
DNA 2: CCTGCCCTGCGTGGATTTGTCACTTCCTGCTCAGAG
B16: Table S2 B row 3759 (dsDNA)
DNA 1: AGCGGCTCCTTCCGGCGGCGCCGGTTCCCTTCCCTC
DNA 2: GAGGGAAGGGAACCGGCGCCGCCGGAAGGAGCCGCT
B17: Table S2 B row 1497 (dsDNA)
DNA 1: CAACACAGGATGTGCAGTATTATACGGCAAAGCACT
DNA 2: AGTGCTTTGCCGTATAATACTGCACATCCTGTGTTG
B18: Table S2 B row 2667 (dsDNA)
DNA 1: GGGATCTACTTCCTCTCTCGGCCTCGGGCGCTGCAC
DNA 2: GTGCAGCGCCCGAGGCCGAGAGAGGAAGTAGATCCC
B19: Table S2 B row 2356 (dsDNA)
DNA 1: CTTCTTCCTGCTGAGACTGATACAGCCCGAAAAGCT
DNA 2: AGCTTTTCGGGCTGTATCAGTCTCAGCAGGAAGAAG
B20: Table S2 B row 3063 (dsDNA)
DNA 1: GTATCACTTCCTGTTTTCCTCTGTAGCTTACTGCTG
DNA 2: CAGCAGTAAGCTACAGAGGAAAACAGGAAGTGATAC
B21: Table S2 B row 3173 (dsDNA)
DNA 1: GACTGCACTTCCTCTGCTTCGAGGTCGGTGCTTAGC
DNA 2: GCTAAGCACCGACCTCGAAGCAGAGGAAGTGCAGTC
B22: Table S2 B row 1434 (dsDNA)
DNA 1: GGCCGGAAGCGCTCTCGTTGGCCCAGCGGCGCTGGA
DNA 2: TCCAGCGCCGCTGGGCCAACGAGAGCGCTTCCGGCC
B23: Table S2 B row 2829 (dsDNA)
DNA 1: AGTGTCCGCCGCTTCCTGGTTGCGCGTCAGCGCCCA
DNA 2: TGGGCGCTGACGCGCAACCAGGAAGCGGCGGACACT
B24: Table S2 B row 1677 (dsDNA)
DNA 1: TGTTTTTGTTTCCGTTTACAAACTACAACAAAGGTG
DNA 2: CACCTTTGTTGTAGTTTGTAAACGGAAACAAAAACA
B25: Table S2 B row 2744 (dsDNA)
DNA 1: TTAGCACATCCTGGGTACACAGAGCACAGCCTCCTC
DNA 2: GAGGAGGCTGTGCTCTGTGTACCCAGGATGTGCTAA
B26: Table S2 B row 1777 (dsDNA)
DNA 1: CCTTCCTTCCGCTGGCAGTAACTAGGCAGTGGACAC
DNA 2: GTGTCCACTGCCTAGTTACTGCCAGCGGAAGGAAGG
B27: Table S2 B row 2489 (dsDNA)
DNA 1: CCTTCCTTCCTGCTGTGTACGTTGGGGTCACAGCAC
DNA 2: GTGCTGTGACCCCAACGTACACAGCAGGAAGGAAGG
B28: Table S2 B row 3509 (dsDNA)
DNA 1: CATGAGAAACATCCTGCCCAACAACCTGACTACAAG
DNA 2: CTTGTAGTCAGGTTGTTGGGCAGGATGTTTCTCATG
B29: Table S2 B row 2874 (dsDNA)
DNA 1: TGAGCAAGTTCCTTCCTGTCTGTGCTCCAGGGTTTA
DNA 2: TAAACCCTGGAGCACAGACAGGAAGGAACTTGCTCA
B30: Table S2 B row 1459 (dsDNA)
DNA 1: CAGATCCGGCGTGGACGAAGCTCGGGAACTACAACA
DNA 2: TGTTGTAGTTCCCGAGCTTCGTCCACGCCGGATCTG
B31: Table S2 B row 3837 (dsDNA)
DNA 1: CTGCTTCCGGCCCCGGGGTTCGCTACCCCAAAATCC
DNA 2: GGATTTTGGGGTAGCGAACCCCGGGGCCGGAAGCAG
B32: Table S2 B row 2699 (dsDNA)
DNA 1: CTCAGGAATGCGGAAGTGCTCTGTGAGCACCCACCA
DNA 2: TGGTGGGTGCTCACAGAGCACTTCCGCATTCCTGAG
B33: Table S2 B row 1859 (dsDNA)
DNA 1: GTGAACTTCCTCCCCCACTGCCTATTTTTACAGCAG
DNA 2: CTGCTGTAAAAATAGGCAGTGGGGGAGGAAGTTCAC
B34: Table S2 B row 980 (dsDNA)
DNA 1: GCGGGCGGAAGTGCCGAGGTTGTACCTCGGCGCTGG
DNA 2: CCAGCGCCGAGGTACAACCTCGGCACTTCCGCCCGC
B35: Table S2 B row 3031 (dsDNA)
DNA 1: CCCGGGGGCAGGAAATGTCGCCTTACCCTCAGCCTT
DNA 2: AAGGCTGAGGGTAAGGCGACATTTCCTGCCCCCGGG
B36: Table S2 B row 1297 (dsDNA)
DNA 1: CCTAGAACCGGAAGAGAAAGGGGCTGGGGTGCAGCA
DNA 2: TGCTGCACCCCAGCCCCTTTCTCTTCCGGTTCTAGG
B37: Table S2 B row 3968 (dsDNA)
DNA 1: GCCGCCGTTTCCTGATTGGTCGTGGGTGGCTACCTC
DNA 2: GAGGTAGCCACCCACGACCAATCAGGAAACGGCGGC
B38: Table S2 B row 1396 (dsDNA)
DNA 1: GAGGAGGAAAGCGGAAGCGCTGCCCTCAGTGGTAGG
DNA 2: CCTACCACTGAGGGCAGCGCTTCCGCTTTCCTCCTC
B39: Table S2 B row 875 (dsDNA)
DNA 1: AGGCAGCACAGGAAGTTATAACTACATGTACACTTG
DNA 2: CAAGTGTACATGTAGTTATAACTTCCTGTGCTGCCT
B40: Table S2 B row 813 (dsDNA)
DNA 1: TGATGTAGAATCCGCTCGGCTTCCGGCGAGGGTGGG
DNA 2: CCCACCCTCGCCGGAAGCCGAGCGGATTCTACATCA
B41: Table S2 B row 575 (dsDNA)
DNA 1: GCAGTGCAGGAAGTGCTTTGTCTGGTACAATCCCAA
DNA 2: TTGGGATTGTACCAGACAAAGCACTTCCTGCACTGC
B42: Table S2 B row 1126 (dsDNA)
DNA 1: TCCAGCCCCACCGGAAGTGGATGTGATTAATCTAGT
DNA 2: ACTAGATTAATCACATCCACTTCCGGTGGGGCTGGA

Target: T1, ETS1 (Homo sapiens, UniProt P14921)
T1 sequence: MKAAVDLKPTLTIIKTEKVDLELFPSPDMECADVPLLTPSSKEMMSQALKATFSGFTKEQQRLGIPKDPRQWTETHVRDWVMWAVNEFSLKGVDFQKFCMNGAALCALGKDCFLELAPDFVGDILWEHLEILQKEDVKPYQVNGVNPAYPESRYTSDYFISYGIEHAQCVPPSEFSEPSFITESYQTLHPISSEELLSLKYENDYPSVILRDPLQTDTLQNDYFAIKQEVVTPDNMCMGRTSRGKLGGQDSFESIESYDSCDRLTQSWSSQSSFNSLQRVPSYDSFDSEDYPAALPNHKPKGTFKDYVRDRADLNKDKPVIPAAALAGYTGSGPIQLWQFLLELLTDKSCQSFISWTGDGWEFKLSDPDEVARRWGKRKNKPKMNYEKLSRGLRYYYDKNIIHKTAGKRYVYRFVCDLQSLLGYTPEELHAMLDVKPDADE
Assay: gcPBM; 1 nM ETS1
Conditions: tags: N-terminal GST (pDEST15), kept (PMC6008103); label: surface-attached array probe

Row | Binder | binding signal
1 | B1 | 8950 PBM fluorescence, median of replicate spots
2 | B2 | 8730 PBM fluorescence, median of replicate spots
3 | B3 | 8570 PBM fluorescence, median of replicate spots
4 | B4 | 8430 PBM fluorescence, median of replicate spots
5 | B5 | 8210 PBM fluorescence, median of replicate spots
6 | B6 | 8120 PBM fluorescence, median of replicate spots
7 | B7 | 7860 PBM fluorescence, median of replicate spots
8 | B8 | 7670 PBM fluorescence, median of replicate spots
9 | B9 | 32300 PBM fluorescence, median of replicate spots
10 | B10 | 7470 PBM fluorescence, median of replicate spots
11 | B11 | 7400 PBM fluorescence, median of replicate spots
12 | B12 | 7160 PBM fluorescence, median of replicate spots
13 | B13 | 7070 PBM fluorescence, median of replicate spots
14 | B14 | 6900 PBM fluorescence, median of replicate spots
15 | B15 | 6750 PBM fluorescence, median of replicate spots
16 | B16 | 6670 PBM fluorescence, median of replicate spots
17 | B17 | 6480 PBM fluorescence, median of replicate spots
18 | B18 | 6350 PBM fluorescence, median of replicate spots
19 | B19 | 6230 PBM fluorescence, median of replicate spots
20 | B20 | 30200 PBM fluorescence, median of replicate spots
21 | B21 | 6100 PBM fluorescence, median of replicate spots

Row | Binder | binding signal
22 | B22 | 6040 PBM fluorescence, median of replicate spots
23 | B23 | 5900 PBM fluorescence, median of replicate spots
24 | B24 | 5730 PBM fluorescence, median of replicate spots
25 | B25 | 5610 PBM fluorescence, median of replicate spots
26 | B26 | 5510 PBM fluorescence, median of replicate spots
27 | B27 | 5450 PBM fluorescence, median of replicate spots
28 | B28 | 5340 PBM fluorescence, median of replicate spots
29 | B29 | 5140 PBM fluorescence, median of replicate spots
30 | B30 | 5020 PBM fluorescence, median of replicate spots
31 | B31 | 27500 PBM fluorescence, median of replicate spots
32 | B32 | 4940 PBM fluorescence, median of replicate spots
33 | B33 | 4830 PBM fluorescence, median of replicate spots
34 | B34 | 4750 PBM fluorescence, median of replicate spots
35 | B35 | 4680 PBM fluorescence, median of replicate spots
36 | B36 | 4610 PBM fluorescence, median of replicate spots
37 | B37 | 4470 PBM fluorescence, median of replicate spots
38 | B38 | 4360 PBM fluorescence, median of replicate spots
39 | B39 | 4250 PBM fluorescence, median of replicate spots
40 | B40 | 4160 PBM fluorescence, median of replicate spots
41 | B41 | 4090 PBM fluorescence, median of replicate spots
42 | B42 | 25900 PBM fluorescence, median of replicate spots
